Conditions in all cases: both partners purified
Experiment [1] concerns the target T1, CD47 extracellular domain (biotin (enzymatically biotinylated; stated for the SPR experiment)).
T1 construct: CD47 extracellular domain; bought protein Abcam ab174029; source: bought: Abcam (ab174029), enzymatically biotinylated
As to the kind of experiment: ELISA; indirect ELISA; CD47^ext coated at 30 ug/mL overnight at 4 °C; serially diluted VHH, 2.5 h at 37 °C; detected with HRP-conjugated anti-His tag mAb, OD450.

Experiment [2] deals with T1, CD47 extracellular domain. As to the kind of experiment: ELISA; indirect ELISA after heat treatment of the VHH (10 min at six temperatures, 4 to 70 °C); CD47^ext coated at 30 ug/mL; VHH at 30 ug/mL, 2 h at 37 °C; detected with HRP-conjugated anti-His tag mAb, OD450.
Experiment [3] has as its target T1, CD47 extracellular domain. As to the kind of experiment: SPR; Biacore 3000, 25 °C; ~350 RU enzymatically biotinylated CD47^ext immobilised on a CM5 chip, VHHs flowed over at 40 uL/min in 10 mM HEPES, 150 mM NaCl, 3 mM EDTA, 0.05% P20, pH 7.4; 1:1 Langmuir model; duplicates.

Changes are numbered by the printed parent chain. Numbers in names are those of the source.

T1 sequence (chain, as listed by the source): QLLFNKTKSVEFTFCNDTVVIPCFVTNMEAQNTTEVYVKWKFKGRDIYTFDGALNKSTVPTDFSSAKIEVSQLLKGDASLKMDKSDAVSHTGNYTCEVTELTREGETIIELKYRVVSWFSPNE

B1: Nb02 quadruple mutant M7 (G107W, T108H, S109V, F110A) (VHH)
VHH: EVQLQASGGGLVQAGGSLRLSCAASGFTNERSQNMGWFRQAPGKEREGVACISSRVVECWYADSVKGRFTISRDNAKNTVYLQMNSLKPEDTAVYYCAAPRAITWHVAVGEHMCDYWGQGTQVTVSS
notes: also called best mutant; lead variant; source: E. coli TransB (DE3), purified (Ni2+ IMAC, HisTrap HP); not shown: His6, C-terminal, kept
For B1, in experiment [1], the “ELISA signal relative to M0 at 5.625 ug/mL” value came out at 158% and the “ELISA signal relative to M0 at 360 ug/mL” value is around 120%. Moreover, the “OD450 at 70 °C relative to 4 °C” value in experiment [2] is around 45%. This molecule displayed a Kd in experiment [3] of 3.2 ± 1 nM.

B2: Nb02 mutant M5 (VHH)
VHH: B1 VHH with A108F
notes: One of five triple and two quadruple mutants combined from the round 1 mutations; source: E. coli TransB (DE3), purified (Ni2+ IMAC, HisTrap HP)
Regarding B2, in experiment [3], binding was put at a Kd of 25.3 ± 3.7 nM.

B3: Nb02 mutant M1 (VHH)
VHH: B1 VHH with S53Q, V107S, A108F
notes: One of five triple and two quadruple mutants combined from the round 1 mutations (S55Q, G107I, G107W, T108H, S109E, S109V, F110A); source: E. coli TransB (DE3), purified (Ni2+ IMAC, HisTrap HP)
Consider B3, for which, in experiment [3], the Kd was determined as 74.5 ± 5.5 nM.

B4: Nb02 mutant M2 (VHH)
VHH: B1 VHH with S53Q, H106T, A108F
notes: as for B2
Consider B4, for which binding in experiment [3] was put at a Kd of 11.4 ± 2.1 nM.

B5: Nb02 mutant M4 (VHH)
VHH: B1 VHH with S53Q, W105G, V107S
notes: the text says only that M4 includes F110A; One of five triple and two quadruple mutants combined from the round 1 mutations; source: E. coli TransB (DE3), purified (Ni2+ IMAC, HisTrap HP)
Turning to B5, the Kd in experiment [3] turned out to be 57 ± 7.3 nM.

B6: Nb02 mutant M6 (VHH)
VHH: B1 VHH with S53Q, A108F
notes: as for B2
Take B6: in experiment [3], binding was characterised by a dissociation constant (Kd) of 58.2 ± 4.5 nM.

B7: Nb02 mutant M3 (VHH)
VHH: B1 VHH with S53Q, W105G, A108F
notes: as for B2
For B7, the Kd in experiment [3] is 69.5 ± 6.1 nM.

Values taken from PMC6747709, “Homology Modeling-Based in Silico Affinity Maturation Improves the Affinity of a Nanobody” (International Journal of Molecular Sciences, 2019).
